Test [1] has as its target T1, cGMP-dependent protein kinase II (PKGII), recombinant (UniProt Q13237 1-762).
T1 construct: cGMP-dependent protein kinase II; also called cGK2; source: insect cell cultures, Bacmid baculovirus expression system, purified to apparent homogeneity
T1 sequence (looked up): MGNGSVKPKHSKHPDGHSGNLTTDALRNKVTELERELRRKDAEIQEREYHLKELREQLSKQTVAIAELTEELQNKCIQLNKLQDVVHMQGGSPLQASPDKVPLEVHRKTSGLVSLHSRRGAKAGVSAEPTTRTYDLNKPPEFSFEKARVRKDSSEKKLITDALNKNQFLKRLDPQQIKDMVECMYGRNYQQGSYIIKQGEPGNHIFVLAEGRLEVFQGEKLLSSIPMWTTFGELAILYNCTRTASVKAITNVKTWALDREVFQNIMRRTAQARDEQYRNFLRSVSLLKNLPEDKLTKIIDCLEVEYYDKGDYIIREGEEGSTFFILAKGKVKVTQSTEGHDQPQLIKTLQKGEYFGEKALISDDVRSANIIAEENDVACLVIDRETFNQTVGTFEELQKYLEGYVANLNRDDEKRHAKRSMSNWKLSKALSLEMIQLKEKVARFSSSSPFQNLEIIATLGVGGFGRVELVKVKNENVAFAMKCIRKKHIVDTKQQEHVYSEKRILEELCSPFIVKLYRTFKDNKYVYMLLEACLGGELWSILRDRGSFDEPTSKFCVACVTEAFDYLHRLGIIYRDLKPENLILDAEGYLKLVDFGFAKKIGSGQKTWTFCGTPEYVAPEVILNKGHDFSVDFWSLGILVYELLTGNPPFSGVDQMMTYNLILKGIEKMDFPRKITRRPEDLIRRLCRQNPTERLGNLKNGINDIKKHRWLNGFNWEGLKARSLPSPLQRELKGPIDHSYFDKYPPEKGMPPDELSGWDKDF
The test is described as follows: kinase inhibition assay (Ki from enzyme kinetics); purified recombinant kinases with multiple concentrations of DT-2; saturating peptide substrate …; PKG isoforms activated with 1 μM cGMP; PKC activated with 50 μg/μL phospholipids and 100 ng/mL 12-O-tetradecanoylphorbol-13-acetate. As to conditions: both partners purified.

In test [2] the target is T2, Recombinant protein kinase Cα (PKCα, human) (human, UniProt P17252 1-672).
T2 construct: protein kinase C alpha, human, recombinant; source: bought: Calbiochem
The description is as above. As to conditions: both partners purified.

The record followed here is article PMC2731736, “cGMP-dependent protein kinase Iα associates with the antidepressant-sensitive serotonin transporter and dictates rapid modulation of serotonin uptake” (Molecular Brain, 2009).

A word on the Ki: it is a dissociation constant, usually derived from enzyme kinetics or from competition with a known ligand. In the case of YGRKKRRQRRRPPLRKKKKKH (also called peptide DT-2) [DT-2], the Ki in test [1] is 9.1 µM; in test [2], 0.0266 µM.
